Source: patent publication US20240218054A1 (MABLOC, published 2024)
Residue numbers refer to the chain shown, from its start.

B1: ADI-49183 (antibody, V domains shown)
VH: QVQLVESGGGLVKPGGSLRLSCVASGFTFNNYYMRWMRQAPGKGLEWVSQISSSGSIKDYADSVKGRFTVSRDNAKNSLYLQLNSLRADDTAVYFCARELSSRIDYWGQGTLVTVSS
VL: QSALTQPASVSGSPGQSITISCTGTGSDVGGYNFVSWYQQHPGKAPKLMLYDVNNRPSGVSNRFSGSKSGNTASLTISGLQAEDEADYYCSSYPGTSALVIFGGGTRLTVL
notes: full-length IgG; also called Antibody Number 24
B2: ADI-42210 (antibody, V domains shown)
VH: EVQLLESGPGLVQPSGTLSLTCTASGGSISSSNWWSWVRQPPGKGLEWIGDIYHTGSTSYNPSLKSRVTISVDKSKNQFSLKLSSVTAADTAVYYCARAELSAWYYFDHWGQGTLVTVSS
VL: QSVLTQPPSVSAAPGQKVTISCSGSSSNIGNNYVSWYQQLPGTAPKLLIYDNNKRPSGIPDRFSGSKSGTSATLGITGLQTGDEADYYCGTWDTSLSAGRVFGGGTKLTVL
notes: full-length IgG; also called Antibody Number 16
B3: ADI-42198 (antibody, V domains shown)
VH: EVQLVESGPGLVKPSGTLSLTCAVSGGSISSNKWWSWVRQPPGKGLEWIGEIYHSGSTSYNPSLKSRVSISVDKSKNQFSLKLSSVTAADTAVYYCARVEWAYSSSWWLDYWGQGTLVTVSS
VL: B2 VL with Y88I, R100G
notes: full-length IgG; also called Antibody Number 21
B4: ADI-42190 (antibody, V domains shown)
VH: QVQLVESGGGLVKPGGSLRLSCAASGFTFSDDYMSWIRQAPGKGLEWVSYISGSGRAMYYADSVQGRFTVSRDNAKNSLFLQMNNLRAEDTAVYYCAKHTGDKPLVWAPSVYGLDVWGQGTTVTVSS
VL: QSVLTQPASVSGSPGQSITISCTGTSSDIGAYNYVSWYQQHPGKAPKLMIYDVTNRPSGVSNRFSGSKSGSSASLTISGLQTEDEADYYCSSYTRRSTLVFGGGTKLTVL
notes: full-length IgG; also called Antibody Number 22
B5: ADI-50201 (antibody, V domains shown)
VH: QVQLVESGGGLVKPGGSLRLSCAASGFIFSDYYMNWIRQAPGKGLDWVSTISGSGKSIYYADSVKGRFTISRDNAKNSLYLQMNSLSAEDTAVYYCARVSPLDDGYGYTYYGMDVWGQGTTVTVSS
VL: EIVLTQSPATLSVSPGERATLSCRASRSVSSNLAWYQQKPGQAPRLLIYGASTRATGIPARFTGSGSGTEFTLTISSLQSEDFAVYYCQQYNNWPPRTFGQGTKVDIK
notes: full-length IgG; also called Antibody Number 17
B6: ADI-48895 (antibody, V domains shown)
VH: EVQLLESGGGLVKPGGSLRLSCAASGFTFSDYYMSWIRQAPGKGLEWVSYITSSGNTKYYADSVKGRFTISRDNAKNSLYLQISSLRAEDTAVYYCARDWAELTTITNYFYPWGQGTTVTVSS
VL: DIQLTQSPSSVSASVGDRVTITCRASQGISSWLAWYQQKPGKAPKLLIHAASSLQSGVPSRFSGSGSGTDFTLTISSLQPEDFATYYCQQAKSFPPTFGQGTRLEIK
notes: full-length IgG; also called Antibody Number 18
B7: ADI-49154 (antibody, V domains shown)
VH: QVQLQESGPGLVKPSGTLSLTCAVSGSSITSSHWWSWVRQPPGKGLAWIGDIYHSGGTTYNPSLKSRVTISVDKSKNQFSLKLSSVTAADTAVYYCARVSVSTSAWYADYWGQGTLVTVSS
VL: QSVLTQPPSVSAAPGQKVTISCSGSSSNIGNNYVSWYQQLPGTAPKLLIYDNNKRPSGIPDRFSGSKSGTSATLGITGLQTGDEANYYCGTWDTSLSTVFGGGTKLTVL
notes: full-length IgG; also called Antibody Number 23
B8: ADI-42201 (antibody, V domains shown)
VH: EVQLVESGGGVVQPGRSLRLSCVASGFTLRSYGMHWVRQVPGKGLEWVAVSWYDGSNKHYADSVKGRFSISRDNSKNTLYLQMNSLRAEDTAVYYCARAQDGQQLVNYYGMDVWGQGTTVTVSS
VL: DIQMTQSPSSLSASVGDRVTITCRASQSISSYLNWYQQKPGEAPNLLIFAASILQSGVPSRFSGSGSGTDFTLTISSLQPEDFATYYCQQSYSTPYTFGQGTKVEIK
notes: full-length IgG; also called Antibody Number 25
B9: ADI-42228 (antibody, V domains shown)
VH: EVQLLESGGGLVQPGRSLRLSCAASGFTFDDYAMHWVRQPPGKGLEWVSGISWNGGGIGYADSVKGRFTISRDNAKNSLYLQMNSLRADDTALYYCAKAENRIGYCSAGSCYLTYFDYWGQGTLVTVSS
VL: QPVLTQPASVSGSPGQSITISCTGTSSDVGGYNYVSWYQQHPGKAPKLLIYDVSNRPSGVSNRFSGSKSANSASLTISGLQAEDEADYYCNSYTSSSTLVFGGGTKLTVL
notes: full-length IgG; also called Antibody Number 19

Target: T1, recombinant YFV E protein (soluble E, sE; YFV Asibi strain) (Yellow fever virus, Asibi strain, UniProt Q6DV88 286-678)
T1 construct: also called YFV E antigen; YFV E monomer
Assay: BLI monovalent (IgG on tip)

T1 sequence (Q6DV88 286-678): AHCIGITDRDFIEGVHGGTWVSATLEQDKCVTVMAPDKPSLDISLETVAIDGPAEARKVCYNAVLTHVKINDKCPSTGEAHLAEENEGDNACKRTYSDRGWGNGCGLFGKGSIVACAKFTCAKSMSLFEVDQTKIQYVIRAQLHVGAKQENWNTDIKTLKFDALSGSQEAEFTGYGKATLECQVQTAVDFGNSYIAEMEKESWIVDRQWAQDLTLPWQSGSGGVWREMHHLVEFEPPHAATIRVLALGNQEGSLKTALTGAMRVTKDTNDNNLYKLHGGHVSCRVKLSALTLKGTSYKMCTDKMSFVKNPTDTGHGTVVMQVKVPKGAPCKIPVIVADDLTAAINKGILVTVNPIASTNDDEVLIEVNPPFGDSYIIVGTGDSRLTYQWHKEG

| Binder | Kd |
| --- | --- |
| B1 | 2.21 nM |
| B2 | 18.7 nM |
| B3 | 33.2 nM |
| B4 | 13.1 nM |
| B5 | 13.1 nM |
| B6 | 4.49 nM |
| B7 | 141 nM |
| B8 | 113 nM |
| B9 | 8.64 nM |
